The target of assay [1] is T1, 重组人ROR1蛋白 (北京义翘神州, 产品编号13968-H08H) (human, UniProt Q01973 30-403).
T1 construct: Bought protein; also called recombinant human ROR1 protein
Description: ELISA, ROR1 coated at 0.5 μg/mL, Fab from 200 μg/mL in 11 dilutions, goat anti-human Fab secondary, OD450. (ELISA stands for enzyme-linked immunosorbent assay.)

The target of assay [2] is ROR1天然抗原 (人卵巢癌细胞系A2780) (human) (UniProt Q01973). Description: flow cytometry on A2780 cells, Fab at 30 μg/mL, FITC goat anti-human Fab secondary.

T1 sequence (Q01973 30-403 limits assumed): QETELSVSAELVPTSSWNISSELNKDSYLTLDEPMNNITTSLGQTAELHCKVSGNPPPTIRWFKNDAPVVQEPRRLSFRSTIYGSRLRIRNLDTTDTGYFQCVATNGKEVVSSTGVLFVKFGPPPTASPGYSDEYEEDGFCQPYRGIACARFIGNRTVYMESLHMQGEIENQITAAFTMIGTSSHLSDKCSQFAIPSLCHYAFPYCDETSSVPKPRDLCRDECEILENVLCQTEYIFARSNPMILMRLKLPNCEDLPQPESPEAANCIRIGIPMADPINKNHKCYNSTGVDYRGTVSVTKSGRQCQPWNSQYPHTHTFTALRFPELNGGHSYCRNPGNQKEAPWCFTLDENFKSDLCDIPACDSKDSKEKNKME

B1: 嵌合抗ROR1抗体Fab分子 (Fab, V domains shown)
VH: EVQLVQSGGGLVQPKGSLKLSCAASGFTFNTYAMNWVRQAPGKGLEWVARIRSKSNNYATYYADSVKDRFTISRDDSQSMLYLQMNNLKTEDTAMYYCVSPAYYGNYVGFAYWGQGTLVTVSA
VL: ELVMTQSPTTMAASPGEKITFTCSASSSISSTYLHWFQQKPGFSPKLLIYRTSNLASGVPARFSGSGSGTSYSLTIGTMEAEDVATYYCQQGSSLPFTFGSGTKLEIKG
notes: Human-mouse chimeric Fab, L and Fd joined by an interchain disulfide; also called 抗ROR1抗体人鼠嵌合Fab分子; 抗ROR1抗体嵌合Fab分子
On to B1, for which the binding result in assay [1] was “binds”. Further, in assay [2], the 结合率 amounted to 97.4%.

The record behind these values is patent CN107827984A (ZHANG HUILIN; ZHU JIN, dated 2018).
